Results reported in EP0480381A1.

Tests used:
[1] = biological target: rat endothelin receptor (rat); assay: displacement of [125I-Tyr13]endothelin-1 by unlabelled peptide on COS-7 cells transfected with prETR-7
[2] = biological target: rat endothelin receptor (rat); assay: cell-based or functional assay

“endothelin-2 (from UniProt P20800 49-69) (peptide)” was tested, and the binding affinity [1] was 2 nM and the increase of calcium concentration in cytoplasm (fura-2), EC50 [2] was 0.02 nM.
